Test results from article PMC4175184, “Structure and function of cohesin’s Scc3/SA regulatory subunit” (Febs Letters, 2014).

Target: T1, S. cerevisiae Scc3, full-length protein (S. cerevisiae, UniProt P40541 1-1150)
T1 construct: Scc3, S. cerevisiae (UniProt SCC3_YEAST, P40541), full-length / intact protein; also called Sc Scc3; intact Scc3 protein; source: E. coli BL21(DE3) RIPL, purified (Talon beads, Superdex 200)
T1 sequence (looked up): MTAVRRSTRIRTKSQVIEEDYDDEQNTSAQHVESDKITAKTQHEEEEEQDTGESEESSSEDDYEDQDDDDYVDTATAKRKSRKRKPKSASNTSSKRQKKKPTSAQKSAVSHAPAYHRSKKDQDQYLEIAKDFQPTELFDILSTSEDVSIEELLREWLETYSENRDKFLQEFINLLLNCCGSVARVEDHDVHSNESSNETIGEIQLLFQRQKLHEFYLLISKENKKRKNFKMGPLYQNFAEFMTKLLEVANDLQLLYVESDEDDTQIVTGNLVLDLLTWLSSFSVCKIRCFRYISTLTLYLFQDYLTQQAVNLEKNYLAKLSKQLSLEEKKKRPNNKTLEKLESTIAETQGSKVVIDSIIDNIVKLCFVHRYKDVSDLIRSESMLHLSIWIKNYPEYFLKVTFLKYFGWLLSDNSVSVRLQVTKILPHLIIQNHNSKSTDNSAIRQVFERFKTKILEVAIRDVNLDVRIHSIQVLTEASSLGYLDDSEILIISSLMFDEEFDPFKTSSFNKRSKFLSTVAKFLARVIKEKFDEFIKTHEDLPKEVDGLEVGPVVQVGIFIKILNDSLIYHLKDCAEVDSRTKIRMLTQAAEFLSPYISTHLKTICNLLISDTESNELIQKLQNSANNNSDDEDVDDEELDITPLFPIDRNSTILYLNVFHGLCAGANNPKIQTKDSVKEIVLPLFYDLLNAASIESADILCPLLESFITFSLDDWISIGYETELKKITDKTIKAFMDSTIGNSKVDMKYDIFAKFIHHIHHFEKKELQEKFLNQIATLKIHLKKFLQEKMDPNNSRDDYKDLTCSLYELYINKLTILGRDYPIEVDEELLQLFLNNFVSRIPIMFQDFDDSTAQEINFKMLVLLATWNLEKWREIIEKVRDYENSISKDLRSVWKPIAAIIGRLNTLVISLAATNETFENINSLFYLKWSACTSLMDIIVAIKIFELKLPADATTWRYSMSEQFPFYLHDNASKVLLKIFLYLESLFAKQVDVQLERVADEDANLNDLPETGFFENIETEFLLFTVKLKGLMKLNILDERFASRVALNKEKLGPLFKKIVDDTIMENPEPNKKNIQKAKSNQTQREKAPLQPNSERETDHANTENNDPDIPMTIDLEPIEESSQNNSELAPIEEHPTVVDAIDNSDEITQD
Test: pull-down; two differently tagged versions of Scc1 (259–451) in the presence of intact Scc3 protein; 5 μM of each in TAP buffer, resin 2 h at 4 °C (Fig. 2-fig^1C)
Details: both partners purified

B1: S. cerevisiae Scc1 (259–451), two differently tagged versions (domain or fragment, UniProt Q12158 259-451, looked up)
chain: DDDNSVEQGRRLGESIMSEEPTDFGFDLDIEKEAPAGNIDTITDAMTESQPKQTGTRRNSKLLNTKSIQIDEETENSESIASSNTYKEERSNNLLTPQPTNFTTKRLWSEITESMSYLPDPILKNFLSYESLKKRKIHNGREGSIEEPELNVSLNLTDDVISNAGTNDNSFNELTDNMSDFVPIDAGLNEAPF
notes: source: E. coli BL21(DE3) RIPL, purified (Talon beads, Superdex 200)
B1: binds.
